Test results published in PMC6525264.

What was measured:
[1] = flow cytometry, cell surface APP, non-permeabilised cells; details: glycan lost; control: APPWT cell line
[2] = Western blot of media, sAPPβ (1A9); details: glycan lost; control: empty vector (Hyg) cell line

Substance | localisation_or_trafficking [1] | other: proteolytic processing [2]
β-Amyloid precursor protein (APP695): APPN496K | decreases | decreases
β-Amyloid precursor protein (APP695): APPN467K | decreases | decreases
